According to PMC6283576, “Structural insight into substrate and product binding in an archaeal mevalonate kinase” (PLoS ONE, 2018):

Molecular target: the molecule itself
Assay: crystal structure; MmMK with mevalonate (2.10 Å) or 5-phosphomevalonate (2.46 Å); space group P2(1)2(1)2(1), two molecules in the asymmetric unit; 100 mM Bis-Tris pH 5.5, sodium potassium tartrate, PEG 8,000 or 10,000

B1: mevalonate kinase from Methanosarcina mazei (enzyme)
chain: MVSCSAPGKIYLFGEHAVVYGETAIACAVELRTRVRAELNDSITIQSQIGRTGLDFEKHPYVSAVIEKMRKSIPINGVFLTVDSDIPVGSGLGSSAAVTIASIGALNELFGFGLSLQEIAKLGHEIEIKVQGAASPTDTYVSTFGGVVTIPERRKLKTPDCGIVIGDTGVFSSTKELVANVRQLRESYPDLIEPLMTSIGKISRIGEQLVLSGDYASIGRLMNVNQGLLDALGVNILELSQLIYSARAAGAFGAKITGAGGGGCMVALTAPEKCNQVAEAVAGAGGKVTITKPTEQGLKVD
notes: mevalonate kinase (MmMK), Methanosarcina mazei; codon-optimized gene cloned into pSKB3 (modified pET28b); also called MmMK; MK; source: E. coli BL21(DE3), purified (Ni-NTA)
B1: binds.
